Assay: yeast display, Sf9 membrane polyspecificity reagent, FACS + sequencing; frameworks hold sequencing errors
Method in brief: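 After 36–48 hours of galactose induction, yeast (Saccharomyces cerevisiae BJ5465) displaying a synthetic nanobody library were stained at 4 °C for 1 hour with 10% biotinylated, detergent-solubilized Sf9 membrane reagent. Streptavidin microbeads enriched the stained cells before FACS sorting into low and high (top ~1%) gates on anti-HA and streptavidin fluorescence. Each clone's polyreactivity label reflects its gate of origin.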

Sequence | polyreactivity (PSR sort gate)
QVQLVESGGGLVQAGGSLRLSCAASGSTFSYYGMGWYRQAPGKERELVAAIDYSGDSTYYADSVKGRFTISRDNAKNTVYLQMNSMKPEDTALYYCNAAHSVRHYAIHLGYWGQGTQVTVSS | low polyreactivity
QVQLVESGGGLVQAGGSLRLSCAASGSTFSYYTMGWYRQAPGKERELVAAISRTGGSTYYADSVKGRFTISRDNAKNTVYLQMNSLKPEDTAVYYCAAKGYVGRYDYWGQGTQVTVSS | high polyreactivity
QVQLVESGGGLVQAGGSLRLSCAASGSTFTDNTMGWYRQAPGKERELVAAISGVGSTYYADSVKGRFTISRDNAKNTVYLQLNSLKPEVSAVYYCAKPYYDGRTHFVSWGQGTQVTVSS | low polyreactivity
QVQLVESGGGLVQAGGSLRLSCAASGSTFTDYAMGWYRQAPGKERELVAAIDSGGITNYADSVKGRFTISRDNAKNTVYLQMNSLKPEDTAVYYCNADSSKFYSHGEYEYWGQGTQVTVSS | low polyreactivity
QVQLVESGGGLVQAGGSLRLSCAASGSTFTDYAMGWYRQAPGKERELVAAITKSGGSTYYADSVKGRFTISRDNAKNTVYLQMNSLKPEDTAVYYCAAGNHRRPADYGSWGQGTQVTVSS | low polyreactivity
QVQLVESGGGLVQAGGSLRLSCAASGSTFTDYDMGWYRQAPGKERELVAAISSGGSTYYADSVKGRFTISRDNAKNTVYLQMNSLKPEDTAVYYCAAVLGVWGGVGSEGDYWGQGTQVTVSS | low polyreactivity
QVQLVESGGGLVQAGGSLRLSCAASGSTFTENAMGWYRQAPGKERELVATISTSDGSTHYADSVKGRFTISRDNAKNTVYLQMNSLKPEDTAVSYCAARPDYYLWHGYYTRRHYYWGQGTQVTVSS | low polyreactivity
QVQLVESGGGLVQAGGSLRLSCAASGSTFTFNAMGWYRQAPGKERELVAVISSGGSTYYADSVKGRFTISRDNAKNTVYLQMNSLKPEDTAVYYCNKVYGYFGQYYLRYNYWGQGTQVTVSS | low polyreactivity
QVQLVESGGGLVQAGGSLRLSCAASGSTFTFNAMGWYRQATGKERELVAAITRSGTSTYYADSVKGRFTISRDNAKNTVYLQMNSLKPEDNAVYYCAAGRLWKTYEYYYWGQGTQVTVSS | high polyreactivity
QVQLVESGGGLVQAGGSLRLSCAASGSTFTFYAMGWYRQAPGKQRELVATISSSGVSTSYADSVKGRFTISRDNAKNTVDLEMNSLKPEDTAVYYCNAGYRRRFIFDYWGQGTQVTVSS | low polyreactivity
QVQLVESGGGLVQAGGSLRLSCAASGSTFTGYTMGWYRQAPGKEREFVAAISSRGGSTYYADSVKGRFTISRDNAKNTVFLQMNSLKPEETAVYYCAAKVWARVDGRQFRMEYWGQGTQVTVSS | high polyreactivity
QVQLVESGGGLVQAGGSLRLSCAASGSTFTKYSMGWYRQAPGKERELVAAITGSGGRTYYADSEKGRFTISRDNAKNTVYLQMNSLKPEDTAVYYCAAEKAAGWYSGYDYWGQGTQVTVSS | high polyreactivity
QVQLVESGGGLVQAGGSLRLSCAASGSTFTLNAMGWYRQAPGKERELVADISWSSGRTYYADSVKGRFTISRDTAKNTVYLQMNSLKPEDTAVYYCATEDFWNVKFYAYYPEFDYWGQGTQVTVSS | low polyreactivity
QVQLVESGGGLVQAGGSLRLSCAASGSTFTLYAMGWSRPAPGKERELVATISWNGGRTYYADSVKGRFTISRDNAKNTVYLQMNSLKPEDTAVYYCAADTYDADYDYWGQGTQVTVSS | high polyreactivity
QVQLVESGGGLVQAGGSLRLSCAASGSTFTLYAMGWYRQAPGKERELVASITASDGSTSYADSVKGRFTISRDNAKNTVYLQMNSLKPEDTAVYYCAARYRVRGISYYYWGQGTQVTVSS | low polyreactivity
QVQLVESGGGLVQAGGSLRLSCAASGSTFTLYAMGWYRQAPGKERELVATITGSGGSTNYADSVKGRFTISRDNAKNTVYLQMNSLKPEDTAVYYCAADYAVYSFTEFNYWGHGTQVTVSS | high polyreactivity
QVQLVESGGGLVQAGGSLRLSCAASGSTFTNYAMGWYRQAPGKERELVAAIDRRDGTTYYADSVKGRFTISRDNAKNTVYLQMNSLKPEDTAVYYCAADRDYSADVPGYYYWGQGTQVTVSS | low polyreactivity
QVQLVESGGGLVQAGGSLRLSCAASGSTFTPNAMGWYRQAPGKERELVAAINWSDSSTYYADSVKGRFTISRDNAKNTVYLQMNSLKPEETAVYYCAAAAQYGQLQVPVYYWGQGTQVTVSS | low polyreactivity
QVQLVESGGGLVQAGGSLRLSCAASGSTFTPYAMGWYRQAPGKERELVAAISWSDDSTYYADSVKGRFTISRDNAKNTVYLQMNSLKPEDTAVYYCAASAYVDYGVYTYIMDYWGQGTQVTVSS | high polyreactivity
QVQLVESGGGLVQAGGSLRLSCAASGSTFTPYAMGWYRQAPGKERELVAAITWRGGSTYYADSVKGRFTISRDNAKNTVYLQMNSLKPEDTAVYYCAAEDYLYFFYAYGYWGQGTQVTVSS | high polyreactivity
QVQLVESGGGLVQAGGSLRLSCAASGSTFTPYTMGWYRQAPGKERELVATITGSDGSTYYADSVKGRFTISRDNAKNTVYLQMNSLKPEDTAVYYCYADETRWTWDPFSYICDDYWGQGTQVTVSS | low polyreactivity
QVQLVESGGGLVQAGGSLRLSCAASGSTFTPYVMGWYRQAPGKEREMVASITGGGGSTYADSVKGRFTISRDNAKNTVYVQMNSLKPEDTAVYYCAAELYRSNVYHYDYWGQGSQVTVSS | high polyreactivity
QVQLVESGGGLVQAGGSLRLSCAASGSTFTRNAMGWYRQAPGKERELVAVISSRGGRTYYADSVKGRFTISRDNAKNTVYLQMNSLKPEDTAVYYCAARYVIPLGNSYDYWGQGTQVTVSS | high polyreactivity
QVQLVESGGGLVQAGGSLRLSCAASGSTFTRYAMGWYRQEPGKERELVAAITRRGVSTYYSDSVKGRFTISLDNAKNTVYLQMNSLKPEDTAVYYCNADVEHYSTLSEYWGQGTQVTVSS | high polyreactivity
QVQLVESGGGLVQAGGSLRLSCAASGSTFTSNTRWYRPAPGKERELVAAISSSGRTYYADSVKGRFTISRDNAKNTVYLQMNSLKPEDTAVYYCAARGREFGYWGQGTQVTVSS | high polyreactivity
QVQLVESGGGLVQAGGSLRLSCAASGSTFTSYAMGWYRQAPGKERELVAAISRRGTSTYYADSVKGRFTISRDNAKNTVYLQMNSLKPEDTAVYYCAADGYYWEYYYWGQVTQVTVSS | high polyreactivity
QVQLVESGGGLVQAGGSLRLSCAASGSTFTTHVMGWYRQAPGKERELVAAISWSSGSTYYADSVKGRFTISRDNEKNTVYLQMNSLKPEDTAVYYCDARLVIFYPYSRYYFWGQGTQVTVSS | high polyreactivity
QVQLVESGGGLVQAGGSLRLSCAASGSTFTTNAMGWYIQAPGKERELVATISGGSTNYADSVKGRFTISRDNAKNTVYLQMNSLKPEDTAVYYCNTDGEVTYDYWGQGTQVTVSS | low polyreactivity
QVQLVESGGGLVQAGGSLRLSCAASGSTFTTNAMGWYSQAPGKERELVATISGGGSTYYADSVKGRFTISRDNAKNTVYLQMNSLKPEDTAVYYCATDVQVPGIGRSVYAYEYWGQGTQVTVSS | low polyreactivity
QVQLVESGGGLVQAGGSLRLSCAASGSTFTTYAMGWYRQAPGKERELVAAISRTGGVTYYADTVKGRFTISRDNGKKTVYLQMNSLKPDDTAVYYCNAGLFRGAQFDYWGLGTQVTVSS | high polyreactivity

— the nanobody polyreactivity screen of Harvey et al. (2022)
